Measurements reported in publication PMC9848473 (2023).

Key:
Experiment in all cases: ITC
[1] = target: RelBs^NTD Y279A (Bacillus subtilis)
[2] = target: RelBs^NTD K290G (Bacillus subtilis)
[3] = target: DarB^E34R (Bacillus subtilis, UniProt O31698 1-147, E34R)
[4] = target: DarB E74G/R75G (Bacillus subtilis, UniProt O31698 1-147, E74G | R75G)

B1: Bacillus subtilis DarB (natural protein)
chain: MISLQSDQLLEATVGQFMIEADKVAHVQVGNNLEHALLVLTKTGYTAIPVLDPSYRLHGLIGTNMIMNSIFGLERIEFEKLDQITVEEVMLTDIPRLHINDPIMKGFGMVINNGFVCVENDEQVFEGIFTRRVVLKELNKHIRSLNK
- Kd [1]: 45.1 µM
- Kd [2]: 4 µM

B2: Bacillus subtilis Rel N-terminal domain region (RelBs^NTD; residues 1 to 373) (domain or fragment)
chain: not shown
- Kd [3]: 10.6 µM
- Kd [4]: 8.9 µM
